The values that follow come from patent publication US20210389324.

Broadly, the Km is the concentration of substrate that gives half-maximal velocity.

Data set [1] has as its system CFP-TRIM14-YFP 25-residue substrate.

Take “Recombinant VEEV nsP2-thioredoxin Protease containing residues 457-792”: in the data set on CFP-V12-YFP, the Km is 12 µM, the Vmax was 0.059 U/mg and the “cleavage of CFP-YFP substrate” value was “VEEV nsP2 cysteine protease”. Moreover, in data set [1], the Km was determined as 21 µM, the Vmax is 0.056 U/mg and the “cleavage of CFP-YFP substrate” value is “VEEV nsP2 cysteine protease”.
